# Data reported in US20060121580A1.
# Where a chain is given by its changes, count along the chain named.
# B1: single-chain phage antibody SC03-006 (scFv)
# scFv: SMAEVQLVESGGGLVQPGGSLRLSCAASGFTFSGYPMHWVRQAPGKGLEWVAVISYDGSNKYYADSVKGRFTISRDNSKNTLYLQMNSLRAEDTAVYYCAKDGSPRTPSFDYWGQGTLVTVLEGTGGSGGTGSGTGTSELDIQMTQSPHSLSASVGDRVTITCRASQGISNYLAWYQQKPGKVPKLLIYAASTLQSGVPSRFSGSGSGTDFTLTISSLQPEDVGVYYCQQRFRTPVTFGQGTKLEIKRAAA
# B2: single-chain phage antibody SC03-012 (scFv)
# scFv: AMAQVQLVQSGAEVKKPGASVKVSCKASGYTFTSYGISWVRQAPGQGLEWMGWISAYNGNTNYAQKLQGRVTMTTDTSTSTAYMELSSLRSDDTAVYYCARMFRKSSFDSWGQGTLVTVSRGGGGSGGGGSGGGGSSELTQDPAVSVALGQTVRITCQGDSLRSYYASWYQQKPGQAPVLVIYGKNNRPSGIPDRFSGSSSGNTASLTITGAQAEDEADYYCNSRDSSGNHVVFGGGTKLTVLGAAA
# B3: single-chain phage antibody SC03-015 (scFv)
# scFv: AMAEVQLVESGGGVVRPGGSLRLSCAASGFTFDDYGMSWVRQAPGKGLEWVSGINWNGGSTGYADSVKGRFTISRDNAKNSLYLQMNSLRAEDTAVYYCARGLSLRPWGQGTLVTVSRGGGGSGGGGSGGGGSSELTQDPAVSVALGQTVRITCQGDSLRSYYASWYQQKPGQAPVLVIYGKNNRPSGIPDRFSGSSSGNTASLTITGAQAEDEADYYCNSRDSSGNHVVFGGGTKLTVLGAAA
# B4: bivalent scFv pyBi03-006C02 (scFv)
# scFv: B1 scFv
# B5: bivalent scFv pyBi03-012C02 (scFv)
# scFv: B2 scFv
# B6: bivalent scFv pyBi03-015C02 (scFv)
# scFv: B3 scFv
# B7: SC03-025 (scFv)
# scFv: AMAEVQLVESGGGLVQPGGSLRLSCAASGFTFSSYAMHWVRQAPGKGLEYVSGISSNGGSTYYANSVKGRFTISRDNSKNTLYLQMGSLRAEDMAVYYCARTTNRAFDIWGQGTMVTVSSGTGGSGGTGSGTGGSTDIQLTQSPDSLAVSLGERATINCKSSQSVLYSSNNKNYLAWYQQKPGQPPKLLIYWASIRESGVPDRFSGSGSGTDFTLTISSLQAEDVAVYYCQQYYNIPYAFGQGTKLEIKRAA
# B8: SC03-026 (scFv)
# scFv: AMAQVQLVQSGGGLVQPGGSLRLSCAASGFTFSSYAMHWVRQAPGKGLEYVSGISSNGGSTYYANSVKGRFTISRDNSKNTLYLQMGSLRAEDMAVYYCARTTNRAFDIWGQGTMVTVSSGTGGSGGTGSGTGGSTDIQMTQSPDSLAVSLGERATINCKSSQSILYSSNSKNYLGWYQQKPGQPPKLLIYWASTRESGVPDRFSGSGSGTDFTLTISSLQAEDVAVYYCQQYYSTPYSFGQGTKVEIKRAA
# B9: SC03-020 (scFv)
# scFv: AMAEVQLVQSGSEVKKPGESLKISCKGSGYGFITYWIGWVRQMPGKGLEWMGIIYPGDSETRYSPSFQGQVTISADKSINTAYLQWSSLKASDTAIYYCAGGSGISTPMDVWGQGTTVTVSSGTGGSGGTGSGTGGSTDIQMTQSPDSLAVSLGERATINCKSSQKILHSSNNKNYLAWYQQKPGQPPKLLIYWASTRESGVPDRFSGSGSGTDFTLTISSLQAEDVAVYYCQQYYSTPPVFGGGTKVEIKRAA
# B10: SC03-021 (scFv)
# scFv: B9 scFv with E4Q, S12T, I140V, Q141V, K166S, I167V, E199Q, V241T, G244Q
# B11: SC03-024 (scFv)
# scFv: AMAQVQLVESGSELKIPGASVKVSCKATGYTFTRYSLNWVRQAPGQGLEWVGWINTQTGNSNYGQAFSGRFVFSLDTSVSTAYLQISSLQAEDTATYYCARKSAGSNAFDIWGQGTMVTVSSGTGGSGGTGSGTGGSTQSVVTQPPSVSAAPGQKATISCSGSSSNIGNNYVSWYQQLPGTAPKLLIYDNNKRPSGIPNRFSGSKSGTSATLGITGLQTGDEADYYCGTWDSSLSAYVFGTGTKVTVLGAA
# B12: SC03-023 (scFv)
# scFv: AMAQVQLQQWGAGLLKPSETLSLTCAVYGGSFSGFYWSWIRQPPGKGLEWIGEINHSGSTNYNPSLKSRVTISVDTSKNQFSLKLSSVTAADTAVYYCARRVEVVEYQLLRPRYKSWFDPWGQGTLVTVSSGTGGSGGTGSGTGGSTQSALTQPRSVSGSPGQSVTISCTGSSSTVGGYNYVSWYQQHPGKAPKLMIYDVSKRPSGVSNRFSGSKSGNTASLTISGLQAEDEADYYCSSYTSSSTYVFGTGTKVTVLGAA
# B13: SC03-054 (scFv)
# scFv: B8 scFv with Q4E, L14V, G19R, M140L, I165V, S171N, G176A, S207G
# B14: SC03-040 (scFv)
# scFv: B8 scFv with K160R, I165V, S171N, G176A, T236S, V246L
# B15: SC03-044 (scFv)
# scFv: B7 scFv with S10T, L140M, I195T, S205R, V225L, N235S, I236T, A239S
# B16: SC03-033 (scFv)
# scFv: AMAQVQLVQSGTEVKKPGESLKISCKGSGYGFITYWIGWVRQMPGKGLEWMGIIYPGDSETRYSPSFQGQVTISADKSINTAYLQWSSLKASDTAIYYCAGGSGISTPMDVWGQGTTVTVSSGTGGSGGTGSGTGGSTDVVMTQSPDSLAVSLGERATINCKTSHNIFSRSNNKDYLAWYQQKPGQPPRLLIYWASTRASGVPERFSGSGSGTDFSLTISSLQAEDVAVYYCQQYYSSPMYSFGQGTKVEIKRAA
# B17: SC03-037 (scFv)
# scFv: AMAKVQLVQSGGGLIQPGGSLRLSCAASGFTVSSNYMSWVRQAPGKGLEWVSIVFSGGSTYYADSVKGRFTISRDNSKNTLYLQMNSLRAEDTAVYYCARDAHRGFGMDVWGQGTTVTVSSGTGGSGGTGSGTGGSTSSELTQDPAVSVALGQTVRITCQGDSLRSYYASWYQQKPGQAPVLVIYGKNNRPSGIPDRFSGSSSGNTASLTITGAQAEDEADYYCNGRDSSGNHWVFGGGTKLTVLGAA
# B18: SC03-038 (scFv)
# scFv: B17 scFv with K4E, N205D, G226S
# B19: SC03-031 (scFv)
# scFv: AMAQVQLVQSGADVKKPGSSVKVSCEASGGTFSSYAISWVRQAPGQGLEWMGRIIPILGITNYAQKFQGRVTITADKSTGTGNMELSSLRSEDTAVYYCARESGGGYDNHFDYWGQGTLVTVSSGTGGSGGTGSGTGGSTQSVLTQPPSASGTPGQRVTISCSGGSSNIGSNTVNWYQQLPGTAPKLVIYANNQRPSGVPDRFSASKSGTSASLAISGLQSEDEADYYCAAWDDSLTGGVFGGGTQLTVLSAA
# Target: fetal bovine serum (FBS), 10% preparation
# Assay: phage ELISA on coated 10% FBS
row,Binder,OD492 nm [OD492 nm]
1,B1,0.086
2,B2,0.1
3,B3,0.077

# Target: SARS-CoV strain Frankfurt 1 (infectious virus)
# Assay: cell-based or functional assay
row,Binder,Neutralization titer for Frankfurt 1 strain (dilution factor)
1,B4,< 20
2,B5,< 20
3,B6,< 20

# Target: SARS-CoV strain Frankfurt 2 (infectious virus)
# Assay: cell-based or functional assay
row,Binder,Neutralization titer for Frankfurt 2 strain (dilution factor)
1,B4,< 20
2,B5,< 20
3,B6,< 20

# Target: SARS-CoV preparation (Frankfurt 1 strain)
# Assay: phage ELISA on coated SARS-CoV preparation, plate 2 (no phage antibody 0.211)
row,Binder,OD492 nm [OD492 nm]
1,B7,1.64
2,B8,1.07
3,B9,0.671
4,B10,0.215
5,B11,0.235
6,B12,1.31

# Target: SARS-CoV preparation (Frankfurt 1 strain)
# Assay: phage ELISA on coated SARS-CoV preparation, plate 4 (no phage antibody 0.051)
row,Binder,OD492 nm [OD492 nm]
1,B13,0.428
2,B14,0.616
3,B15,0.518
4,B16,0.288
5,B17,0.287
6,B18,0.314
7,B19,0.635
